Reference: patent US20260356955 (published 2026)

Tests used:
human KLRB1 ECD [1] = biological target: human KLRB1 ECD (human); assay: SPR
[2] = biological target: T1, cynomolgus KLRB1 on CHO-K1 (cynomolgus); assay: FACS
T1 chain: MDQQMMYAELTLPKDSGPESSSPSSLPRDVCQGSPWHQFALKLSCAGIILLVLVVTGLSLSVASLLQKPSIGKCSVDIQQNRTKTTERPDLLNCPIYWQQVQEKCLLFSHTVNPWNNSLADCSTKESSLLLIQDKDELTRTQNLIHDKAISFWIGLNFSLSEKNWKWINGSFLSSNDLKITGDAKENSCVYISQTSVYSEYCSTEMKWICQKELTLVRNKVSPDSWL

human KLRB1 ECD [3] = biological target: human KLRB1 ECD (human); assay: ELISA
human KLRB1 on CHO-K1 = human KLRB1 on CHO-K1 (human); assay: FACS
human KLRB1 on CHO-K1 (human), sequence (chain, as listed by the source): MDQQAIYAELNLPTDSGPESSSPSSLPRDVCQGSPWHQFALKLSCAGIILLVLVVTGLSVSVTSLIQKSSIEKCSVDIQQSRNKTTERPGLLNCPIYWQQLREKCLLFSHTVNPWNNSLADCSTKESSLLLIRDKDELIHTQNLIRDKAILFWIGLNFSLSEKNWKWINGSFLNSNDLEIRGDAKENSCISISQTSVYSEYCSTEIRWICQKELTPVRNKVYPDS

human KLRB1 ECD (human), sequence (chain, as listed by the source): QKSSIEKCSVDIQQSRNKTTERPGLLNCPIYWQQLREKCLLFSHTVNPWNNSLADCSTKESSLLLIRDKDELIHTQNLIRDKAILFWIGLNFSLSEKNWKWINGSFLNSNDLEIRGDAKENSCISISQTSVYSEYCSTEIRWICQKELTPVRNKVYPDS

Row | Kd (human KLRB1 ECD [1]) [nM] | binding result [2] | EC50 (human KLRB1 ECD [3]) [nM] | EC50 (human KLRB1 on CHO-K1) [nM] | Binder
1 | 4.4 |  |  |  | 52G9B12B5 chimeric (antibody, V domains shown) VH: QVQLQQSGAELMQPGTSVKIPCKATGYTFSSFWMEWVKQRPGHGLEWIGEIFPGSGSTNYNEKFKGKATFTADTSSNTAYMQLSSLTSEDSAVYYCATLITTGLTYWGQGTLVTVSA VL: NIVMTQSHKFMSTSVGDRVSITCKASQDVNTAVAWYQQIPGRSPKLLIYWASTRHTGVPDRFTGSGSGTDYTLTISSVQAEDLAFYYCQQHYRIPFTFGAGTKLELK
2 | 6.38 |  |  |  | 66G9C11 (antibody, V domains shown) VH: HVQLQQSGPELVRPGASVKLSCKASGYIFFTFWMNWVKQRPGQGLEWIGQIFPASGSTNYNEMFEGKATLTVDTSSSTAYMQLSSLTSEDSAVYYCASLERAWFAYWGQGTLVTVSA VL: DIVLTQSPATLSVTPGDRVSLSCRASQSINNYLHWYQQKSHESPRLLIKYASQSISGIPSRFSGSGSGADFTLSINSVETEDFGMYFCQQSNSWPPTFGGGTKLEIK
3 | 0.255 |  |  |  | 5B1B11 chimeric (antibody, V domains shown) VH: QVQLQQPGAELVKPGASVKLSCKASGYTFTNYWMHWVKQRPGQGLEWIGEINPSNGRTNFNEKFKSKATLTVDKSSSTAYMQLSSLTSEDSAVYYCARSYDSYYAAVDYWGQGTSVTVSS VL: QIVLTQSPAIMSASLGEEITLTCSASSSVSYMHWYQQKSGTSPKLLIYTTSNLPSGVPSRFSGSGSGTFYSLTISSVEAEDAADYYCHQWSTYPYTFGGGTKLEIK
4 | 3.33 |  |  |  | 92E12F2 (antibody, V domains shown) VH: DVQLQESGPGLVKPSQSLSLTCSVTGYSITSGYYWNWIRQFPGNKLEWLGYISYDGSNNDNPSLTNRISISRDTSRNQFFLKFNSVTTDDSATYYCARGDFYGYVYWGQGTTLTVSS VL: DIVLTQSPASLAVSLGQRATISCRASKSVSSSGYTYLHWYQQKPGQPPKLLIYLTSNLDSGVPARFSGSGSGTDFTLNIHPVEEEDAATYYCQHSRELPRTFGGGTKLEIK
5 | 0.575 |  |  |  | 57E2E4 chimeric (antibody, V domains shown) VH: DVQLQESGPGLVKPSQSLSLTCSVTGYSISSGYYWNWIRQFPGNKLEWMAYISYDGSNNYNPSLKNRVSITRDTSKNQFFLRLNSVTAEDTATYYCTRGDFYGYVYWGQGTTLTVSL VL: DIVLTQSPASLAVSLGQRATISCRASKRVSTSDYSYMHWYQQKPGQPPKLLIYLASNLESGVPARFSGSGSGTDFTLNIHPVEEEDAATYYCQHSREFPRTFGGGTKLEIK
6 | 0.0591 |  |  |  | 5A11D10 chimeric (antibody, V domains shown) VH: DVQLQESGPGQVKPSQSLSLTCTVTGYSLTSDFAWNWIRQFPGNKLEWMGDIRYSGSTDYNPSLKTRSSITRDTSKNQFFLHLNSVTTEDTATYYCARGGYYGYDEGYPMDYWGQGTSVTVSS VL: NIVLTQSPASLAVSLGQRATISCRASESVDVYGNSFMHWYQQKAGQPPKLLIYLAFNLKSGVPARFSGSGSRTDFTLTIDPVEADDAATYYCQQNNEDPFTFGSGTKLEIK
7 | 14.8 |  |  |  | 9C10G11 (antibody, V domains shown) VH: QVQLKESGPGLVAPSQSLSITCTVSGFSLTGYGVNWVRQPPGKGLEWLGMIWGDGSTDYNSALKSRLSISKDNSKSQVFLKMNSLQTDDTARYYCARTYNNYHYWYFDVWGAGTTVTVSS VL: DIQMTQSPASLSASVGETVTITCRASGNIHNYLAWYQQKQGKSPQLLVYNAKTLADGVPSRFSGSGSGTQYSLKINSLQPEDFGSYYCQHFWSTPYTFGGGTKLEIK
8 | 0.0147 |  |  |  | 7B6C7 chimeric (antibody, V domains shown) VH: QVQLKESGPGLVAPSQSLSITCTVSGFSLNDYGVNWVRQPPGKALEWLGMIWGDGSTDYNSALKSRLTITKDNSKSQVFLKMNSLHTDDTARYFCARTYNYYHYWYFDVWGAGTTVTVSS VL: DIQMTQSPASLSASVGETVTITCRASGNIHNYLSWYQQKQGKSPQLLVYNAETLADGVPSRFSGSGSGTQYSLKINNLQPEDFGSYYCQHFWSTPYTFGGGTKLEIK
9 | 23.3 |  |  |  | 37G6A7 (antibody, V domains shown) VH: QVQLKESGPGLVAPSQSLSITCTVSGFSLTDYGVNWVRQPPGKGLEWLGMIWGDGSTDYNSALKSRLTISKDNSKSQVFLKMNSLQTDDTARYYCARTYGTYHYWYFDVWGAGTTVTVSS VL: DIQMTQSPASLSASVGETVTITCRASGNIHNYLAWYQQKQGKSPQLLVYIAKTLADGVPSRFSGSGSGTQYSLKINSLQPEDFGTYYCQHFWSTPYTFGGGTKLEIK
10 | 1.21 |  |  |  | 39C5D6 (antibody, V domains shown) VH: QVQLKESGPGLVAPSQSLSITCTVSGFSLTDYGVNWVRQTPGKGLEWLGMIWGDGSTDYNLPLKSRLSITKDNSKSQVFLKMNSLQTDDTARYYCARTYANYHYWYFDVWGAGTTVTVSS VL: DIQMTQSPASLSASVGETVTITCRASGNIHNYLAWYQQKQGKSPQLLVYNAKTLEDGVPSRFSGSGSGTQYSLKINSLQPDDFGNYFCQHFWSTPYTFGGGTKLEIK
11 | 7.03 |  |  |  | 62H1D6 (antibody, V domains shown) VH: QVQLQQSGPELVRPGVSVKISCKGSGYTFTDYAMHWVKQSHAKSLEWIGVISTYYGNTNYNQKFKGRATMTVDKSSSTAYMELARLTSEDSAIYYCAREYGNYPYYYAMDYWGQGTSVTVSS VL: not shown
12 | 17.1 |  |  |  | 13H2D11 (antibody, V domains shown) VH: QVQLQQPGAELVRPGASVKLSCKASGYSFTSYWMNWVKQRPGQGLEWIGMIHPSDSETRLNQKFKDKATLTVDKSSSTAYMQLSSPTSEDSAVYYCASEGFRRGSFAYWGQGTLVTVSA VL: not shown
13 |  | no binding | 0.014 | 5.77 | Hu50A8F2-12 (antibody, V domains shown) VH: QVQLVQSGAEVKKPGASVKVSCKASGYTFIDYYINWVRQAPGQGLEWMGWIFPGSGHTKYNENFKGKVTLTVDTSTSTVYMELSSLRSEDTAVYYCARGDRSALGYFDYWGQGTTVTVSS VL: DIQLTQSPSSLSASVGDRVTITCTASSSVSSTYLHWYQQKPGKSPKLLIYSTSNLASGVPSRFSGSGSGTDYTLTISSLQPEDAATYYCHQYHRSPLTFGQGTKLEIK
14 |  | no binding | 0.0121 | 5.12 | Hu50A8F2-14 (antibody, V domains shown) VH: QVQLVQSGAEVKKPGASVKVSCKASGYTFIDYYINWVRQAPGQGLEWIGWIFPGSGHTKYNENFKGKVTLTVDTSTSTVYMELSSLRSEDTAVYFCARGDRSALGYFDYWGQGTTVTVSS VL: DIQMTQSPSSLSASVGDRVTITCTASSSVSSTYLHWYQQKPGKAPKLLIYSTSNLASGVPSRFSGSGSGTDYTLTISSLQPEDFATYYCHQYHRSPLTFGQGTKLEIK
15 |  | no binding | 0.0174 | 5.72 | Hu50A8F2-07 (antibody, V domains shown) VH: QVQLVQSGAEVKKPGASVKVSCKASGYTFIDYYINWVRQAPGQGLEWMGWIFPGSGHTKYNENFKGKVTMTVDTSTSTVYMELSSLRSEDTAVYYCARGDRSALGYFDYWGQGTTVTVSS VL: DIQLTQSPSSLSASVGDRVTITCTASSSVSSTYLHWYQQKPGKSPKLLIYSTSNLASGVPSRFSGSGSGTDYTLTISSLQPEDFATYYCHQYHRSPLTFGQGTKLEIK
16 |  | no binding | 0.0111 | 5.44 | Hu50A8F2-08 (antibody, V domains shown) VH: QVQLVQSGAEVKKPGASVKVSCKASGYTFIDYYINWVRQAPGQGLEWMGWIFPGSGHTKYNENFKGKVTMTVDTSTSTVYMELSSLRSEDTAVYYCARGDRSALGYFDYWGQGTTVTVSS VL: DIQLTQSPSSLSASVGDRVTITCTASSSVSSTYLHWYQQKPGKSPKLLIYSTSNLASGVPSRFSGSGSGTDYTLTISSLQPEDAATYYCHQYHRSPLTFGQGTKLEIK
17 |  | no binding | 0.0189 | 5.4 | Hu50A8F2-09 (antibody, V domains shown) VH: QVQLVQSGAEVKKPGASVKVSCKASGYTFIDYYINWVRQAPGQGLEWMGWIFPGSGHTKYNENFKGKVTLTVDTSTSTVYMELSSLRSEDTAVYYCARGDRSALGYFDYWGQGTTVTVSS VL: DIQMTQSPSSLSASVGDRVTITCTASSSVSSTYLHWYQQKPGKAPKLLIYSTSNLASGVPSRFSGSGSGTDFTLTISSLQPEDFATYYCHQYHRSPLTFGQGTKLEIK
18 |  | no binding | 0.0183 | 5.51 | Hu50A8F2-05 (antibody, V domains shown) VH: QVQLVQSGAEVKKPGASVKVSCKASGYTFIDYYINWVRQAPGQGLEWMGWIFPGSGHTKYNENFKGKVTMTVDTSTSTVYMELSSLRSEDTAVYYCARGDRSALGYFDYWGQGTTVTVSS VL: DIQMTQSPSSLSASVGDRVTITCTASSSVSSTYLHWYQQKPGKAPKLLIYSTSNLASGVPSRFSGSGSGTDFTLTISSLQPEDFATYYCHQYHRSPLTFGQGTKLEIK
19 |  | no binding | 0.0167 | 5.81 | Hu50A8F2-02 (antibody, V domains shown) VH: QVQLVQSGAEVKKPGASVKVSCKASGYTFIDYYINWVRQAPGQGLEWMGWIFPGSGHTKYNENFKGRVTMTRDTSTSTVYMELSSLRSEDTAVYYCARGDRSALGYFDYWGQGTTVTVSS VL: DIQMTQSPSSLSASVGDRVTITCTASSSVSSTYLHWYQQKPGKAPKLLIYSTSNLASGVPSRFSGSGSGTDYTLTISSLQPEDFATYYCHQYHRSPLTFGQGTKLEIK
20 |  | no binding | 0.0144 | 5.43 | Hu50A8F2-11 (antibody, V domains shown) VH: QVQLVQSGAEVKKPGASVKVSCKASGYTFIDYYINWVRQAPGQGLEWMGWIFPGSGHTKYNENFKGKVTLTVDTSTSTVYMELSSLRSEDTAVYYCARGDRSALGYFDYWGQGTTVTVSS VL: DIQLTQSPSSLSASVGDRVTITCTASSSVSSTYLHWYQQKPGKSPKLLIYSTSNLASGVPSRFSGSGSGTDYTLTISSLQPEDFATYYCHQYHRSPLTFGQGTKLEIK
